In patent US5985836A, “Alpha-1 proteinase inhibitor binding peptides” (Bayer Corporation, priority 1998, dated 1999):
Ends that are not written are not given here.

Legend:
A1PI [1] = target: T1, A1PI (Homo sapiens, UniProt P01009); assay: A1PI binding on peptide-resin column, injection of 1 mg A1PI in equilibration buffer; details: for % of Total A1PI Eluted by Fraction (Based on Absorbance at 280 nm), 1M NaCl / % of Total A1PI Eluted by Fraction (Based on Absorbance at 280 nm), 2% Acetic Acid / % of Total A1PI Eluted by Fraction (Based on Absorbance at 280 nm), Flowthrough: Trp position mutations, 1 mg A1PI; for Percent A1PI Eluted by Fraction Based on Absorbance at 280 nm, 1M NaCl / Percent A1PI Eluted by Fraction Based on Absorbance at 280 nm, 2% Acetic Acid / Percent A1PI Eluted by Fraction Based on Absorbance at 280 nm, Flowthrough / Percent A1PI Eluted by Fraction, 1M NaCl / Percent A1PI Eluted by Fraction, 2% Acetic Acid / Percent A1PI Eluted by Fraction, Flowthrough: 1 mg A1PI in equilibration buffer
T1 construct: Human plasma is currently the only approved source of therapeutic AlPI
Protocol: (§1) Confirmatory binding assays were performed in a column chromatographic format on a microbore HPLC using individual peptide sequences synthesized directly onto the Toyopearl 650 M Chelate resin which had been modified with Totda followed by an alanine residue (A-Totda-Toyopearl), at a final substitution density of 0.1 mmole/g resin. The resin was packed into 0.4×5 cm columns (Thomson, Springfield, Va.) and tested on the Michrom HPLC system (Michrom BioResources, Auburn, Calif.). The elution program for all trials utilized the following method. The column was pre-equilibrated with equilibration buffer (as above). 1 ml of sample was injected and allowed sufficient time to flowthrough the column using equilibration buffer. The column was then washed with step elutions of 1M NaCl and 3M NaCl in equilibration buffer. The column was exposed to equilibration buffer with 0.1M NaCl. Any remaining protein was eluted with elution buffer (2% by volume glacial acetic acid in water).
(§2) A Gilson FC204 fraction collector at the HPLC outlet collected individual eluates for further analysis. Fractions collected from the 2% acetic acid eluates were neutralized with 2M Tris, pH 10.5 to bring the pH to neutrality. The protein samples were reconstituted in equilibration buffer unless otherwise stated. The samples were analyzed by the integration of the absorbance at 280 nm or by immunonephelometry. The specific method of determination is presented for each figure.
Tables 2 and 3 present the elution profiles for 19 sequences based on the injection of 1 mg AlPI in equilibration buffer at 4° C. and 20° C., respectively. The columns were run at a constant flow rate of865 μl/min (413 cm/hr) or 523 μl/min (250 cm/hr). No dependence of the elution profile with flow rate was found. The Percent AlPI Eluted by Fraction represents the amount eluted in the flowthrough, 1M NaCl wash, and 2% acetic acid fractions relative to the total AlPI eluted. The percentages are based on either the integration of the peak areas at […]

A1PI [2] = target: T1, A1PI; assay: Purification of A1PI from Effluent II+III on peptide column, A1PI mass balance; assay type: binding; details: Table 11, 1 ml Eff. II+III, 4° C.
Protocol: Sequences 1-11 and 15 were assayed with Effluent II+III (Eff. II+III). Eff. II+III is a process intermediate in the Cohn plasma fractionation process. The feed stream contains 20% (by volume) ethanol, 20-25 mg/ml hSA and approximately 1 mg/ml AlPI. The stream also contains other proteins including anti-thrombin III (AT3), immunoglobin G (IgG), immunoglobin A (IgA), apolipoprotein alpha-1 (Apo A-1), transferrin (Trf), haptoglobin (Hpt), and alpha-1 acid glycoprotein (AAG) at concentrations ranging from 0.1-1 mg/ml.
The columns were assayed using the same technique as the hSA+AlPI experiments, allowing for a 10 minute residence time followed by a constant flow rate of 865 μl/min with step elutions of 1M NaCl, 3M NaCl, and 2% acetic acid. All experiments were conducted at 4° C. The mass balances for the injection of 1 ml Eff. […] The AlPI was enriched from 3% of the total protein in the feed to upwards of 50% in the acid eluate.

A1PI [3] = target: T1, A1PI; assay: A1PI purification from 5 mg hSA + 1 mg A1PI on peptide column, A1PI mass balance; assay type: binding; details: A1PI, 5 mg hSA + 1 mg A1PI; for Mass Protein per Eluate Fraction, 1M NaCl / Mass Protein per Eluate Fraction, Flow / Mass Protein per Eluate Fraction, 2% Ac. Acid / Mass Protein per Eluate Fraction, 3M NaCl: * Below detection limit; for Percent Eluted by Fraction, 1M NaCl / Percent Eluted by Fraction, 2% Ac. Acid / Percent Eluted by Fraction, 3M NaCl / Percent Eluted by Fraction, Flow: relative to total eluted
Protocol: as §1, §2
Columns were assayed with a mixture of 5 mg human serum albumin (hSA)+1 mg AlPI at 4° C. (Table 4, Seq. ID 1-11, 15, 17) and 20° C. (Table 5, Seq. ID 1-10, 13, 15, 17). The chromatography method was modified to provide for a 10 minute residence time of sample in the column by decreasing the flow to 17 μl/min (10 cm/hr) upon injection. Following the incubation, the flow was set at 865 μl/min (413 cm/hr) for the step elutions of 1M NaCl, 3M NaCl, and 2% acetic acid. The mass balances presented are based upon immunonephelometry. The Percent Eluted value is protein-specific and based on the amount of the protein eluted in a […]

T1 sequence (P01009 25-418): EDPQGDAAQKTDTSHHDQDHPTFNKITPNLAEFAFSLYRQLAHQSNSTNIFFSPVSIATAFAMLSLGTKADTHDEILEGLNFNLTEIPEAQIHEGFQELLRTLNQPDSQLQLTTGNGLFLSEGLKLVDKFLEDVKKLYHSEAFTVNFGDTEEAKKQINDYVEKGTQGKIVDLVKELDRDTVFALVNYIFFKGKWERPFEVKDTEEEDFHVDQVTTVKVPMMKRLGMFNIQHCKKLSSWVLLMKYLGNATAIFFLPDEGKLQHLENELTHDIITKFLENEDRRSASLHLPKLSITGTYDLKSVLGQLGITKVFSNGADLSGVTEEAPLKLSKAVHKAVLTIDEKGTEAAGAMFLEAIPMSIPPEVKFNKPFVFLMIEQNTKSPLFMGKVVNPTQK

Row | Substance | Mass Protein per Eluate Fraction, 1M NaCl (A1PI [3]; 20° C.) [mg] | Mass Protein per Eluate Fraction, Flow (A1PI [3]; 20° C.) [mg] | Percent Eluted by Fraction, 1M NaCl (A1PI [3]; 20° C.) [%] | Percent Eluted by Fraction, 2% Ac. Acid (A1PI [3]; 20° C.) [%] | Percent Eluted by Fraction, 3M NaCl (A1PI [3]; 20° C.) [%] | Percent Eluted by Fraction, Flow (A1PI [3]; 20° C.) [%] | Percent A1PI Eluted by Fraction Based on Absorbance at 280 nm, 1M NaCl (A1PI [1]; 4° C.) [%] | Percent A1PI Eluted by Fraction Based on Absorbance at 280 nm, 2% Acetic Acid (A1PI [1]; 4° C.) [%] | Percent A1PI Eluted by Fraction Based on Absorbance at 280 nm, Flowthrough (A1PI [1]; 4° C.) [%] | Percent A1PI Eluted by Fraction, 1M NaCl (A1PI [1]; 20° C.) [%] | Percent A1PI Eluted by Fraction, 2% Acetic Acid (A1PI [1]; 20° C.) [%] | Percent A1PI Eluted by Fraction, Flowthrough (A1PI [1]; 20° C.) [%] | Mass Protein per Eluate Fraction, 1M NaCl (A1PI [3]; 4° C.) [mg] | Mass Protein per Eluate Fraction, Flow (A1PI [3]; 4° C.) [mg] | Percent Eluted by Fraction, 1M NaCl (A1PI [3]; 4° C.) [%] | Percent Eluted by Fraction, 2% Ac. Acid (A1PI [3]; 4° C.) [%] | Percent Eluted by Fraction, Flow (A1PI [3]; 4° C.) [%] | Mass Protein per Eluate Fraction, 2% Ac. Acid (A1PI [3]; 20° C.) [mg] | Mass Protein per Eluate Fraction, 3M NaCl (A1PI [3]; 20° C.) [mg] | further results
1 | V I A L V R: VIWLVR with Trp at position 3 replaced by Ala (VIALVR) |  |  |  |  |  |  |  |  |  |  |  |  |  |  |  |  |  |  |  | % of Total A1PI Eluted by Fraction (Based on Absorbance at 280 nm), 1M NaCl (A1PI [1]; 4° C.): 92%; % of Total A1PI Eluted by Fraction (Based on Absorbance at 280 nm), 2% Acetic Acid (A1PI [1]; 4° C.): 8%; % of Total A1PI Eluted by Fraction (Based on Absorbance at 280 nm), Flowthrough (A1PI [1]; 4° C.): 0%; % of Total A1PI Eluted by Fraction (Based on Absorbance at 280 nm), 1M NaCl (A1PI [1]; 20° C.): 36%; % of Total A1PI Eluted by Fraction (Based on Absorbance at 280 nm), 2% Acetic Acid (A1PI [1]; 20° C.): 53%; % of Total A1PI Eluted by Fraction (Based on Absorbance at 280 nm), Flowthrough (A1PI [1]; 20° C.): 10%; Mass A1PI per Eluate Fraction, 1M NaCl (A1PI [2]; * Below detection limit): 0.05 mg; Mass A1PI per Eluate Fraction, 2% Acetic Acid (A1PI [2]; * Below detection limit): 0.35 mg; Mass A1PI per Eluate Fraction, Flowthrough (A1PI [2]; * Below detection limit): 0.18 mg; Percent Eluted by Fraction, 1M NaCl (A1PI [2]; A1PI): 8%; Percent Eluted by Fraction, 2% Acetic Acid (A1PI [2]; A1PI): 61%; Percent Eluted by Fraction, Flowthrough (A1PI [2]; A1PI): 31%
2 | WIKWTK | 0.80 | 0.02 | 97 | 0 | 0 | 3 | 100 | 0 | 0 | 91 | 2 | 7 |  |  |  |  |  |  |  | 
3 | IWRKYS | 0.58 |  | 83 | 17 | 0 | 0 | 94 | 6 | 0 | 81 | 19 | 0 | 0.68 | 0.03 | 96 | 0 | 4 | 0.11 | 0.00 | Percent Eluted by Fraction, 3M NaCl (A1PI [3]; 4° C.): 0%
4 | WKLWRW | 0.15 | 0.16 | 20 | 52 | 7 | 21 | 80 | 20 | 0 | 67 | 33 | 0 | 0.44 | 0.17 | 66 | 9 | 25 | 0.40 | 0.05 | Mass Protein per Eluate Fraction, 2% Ac. Acid (A1PI [3]; 4° C.): 0.06 mg
